Laboratory results: US20040049009A1, “Methods for improving the antagonistic/agonistic properties of peptidic antagonists/agonists of the corticotropin-releasing factor receptor (crfr)” (published 2004)
Substitutions are numbered along the chain they refer to. Ends that are not written are not given here.

B1: [Ala^21,23Arg^22]Svg (peptide)
peptide: QGPPISIDLSLELLRKMIEIARAEKEKQQAANNRLLLDTI
modifications: ends and bridges not checked
B2: [Ala^21]Svg (peptide)
peptide: B1 peptide with R22K, A23Q
modifications: ends and bridges not checked

Legend:
rat CRF receptor, type 1 [1] = target: T1, rat CRF receptor, type 1 (rat, UniProt P35353); experiment: SPA competition with 0.05 nM [125I-Tyr0]h/rCRF, HEK-293 membranes; 95% CI (0.06-0.51)
rat CRF receptor, type 1 [2] = target: T1, rat CRF receptor, type 1; experiment: SPA competition with 0.05 nM [125I-Tyr0]h/rCRF, HEK-293 membranes; 95% CI (0.15-0.49)

Binder	IC50 (rat CRF receptor, type 1 [1])	IC50 (rat CRF receptor, type 1 [2])
B1	0.29 nM	–
B2	–	0.32 nM
